Biological target: Fas on Jurkat cells (cell line from human T cell) (human) (UniProt P25445)
Assay: cell-based or functional assay

UniProt P25445, sequence (P25445 26-335): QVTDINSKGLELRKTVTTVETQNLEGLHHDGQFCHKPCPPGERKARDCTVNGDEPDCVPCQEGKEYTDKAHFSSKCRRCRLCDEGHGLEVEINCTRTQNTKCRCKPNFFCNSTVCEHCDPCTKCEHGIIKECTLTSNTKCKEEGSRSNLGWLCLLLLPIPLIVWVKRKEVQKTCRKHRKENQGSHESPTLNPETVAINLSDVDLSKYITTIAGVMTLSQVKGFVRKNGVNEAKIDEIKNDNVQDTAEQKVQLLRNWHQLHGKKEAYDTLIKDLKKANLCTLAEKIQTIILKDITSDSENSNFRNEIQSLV

apoptosis-inducing activity relative to IleZip-shFasL (WST-1 assay, Jurkat cells): 10 times
apoptosis-inducing activity relative to shFasL (WST-1 assay, Jurkat cells): 100 times
Substance: FLAG-IleZip-shFasL (pM1815), fusion protein of FLAG peptide, leucine zipper and the extracellular domain of human Fas ligand

Reference: patent US20040053249A1
